Measured values published in publication PMC5356841.

Legend:
[1] = target: individual catalytic domain of human MT2-MMP (human)
[2] = target: individual catalytic domain of human MT3-MMP (human)
[3] = target: individual catalytic domain of human MT4-MMP (human)
[4] = target: individual catalytic domain of human MT5-MMP (human)
[5] = target: individual catalytic domain of human MT6-MMP (human)
individual catalytic domain of human MT6-MMP (human), sequence (Q9NPA2 22-562): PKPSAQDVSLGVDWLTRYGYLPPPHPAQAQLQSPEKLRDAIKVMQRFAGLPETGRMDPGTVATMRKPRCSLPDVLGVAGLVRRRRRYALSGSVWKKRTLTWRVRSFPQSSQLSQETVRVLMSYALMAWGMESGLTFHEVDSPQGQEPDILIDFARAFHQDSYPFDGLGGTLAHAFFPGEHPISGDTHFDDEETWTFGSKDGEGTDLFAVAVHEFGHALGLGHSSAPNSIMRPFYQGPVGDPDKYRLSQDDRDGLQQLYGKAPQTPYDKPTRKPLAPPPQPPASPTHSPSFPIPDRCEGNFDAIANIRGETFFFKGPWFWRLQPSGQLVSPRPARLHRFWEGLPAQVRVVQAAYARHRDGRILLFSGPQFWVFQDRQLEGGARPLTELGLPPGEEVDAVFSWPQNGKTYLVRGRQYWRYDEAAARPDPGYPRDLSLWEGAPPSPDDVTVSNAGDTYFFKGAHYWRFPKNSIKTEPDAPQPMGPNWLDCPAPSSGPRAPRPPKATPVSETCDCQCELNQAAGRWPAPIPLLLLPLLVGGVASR

individual catalytic domain of human MT4-MMP (human), sequence (Q9ULZ9 36-603): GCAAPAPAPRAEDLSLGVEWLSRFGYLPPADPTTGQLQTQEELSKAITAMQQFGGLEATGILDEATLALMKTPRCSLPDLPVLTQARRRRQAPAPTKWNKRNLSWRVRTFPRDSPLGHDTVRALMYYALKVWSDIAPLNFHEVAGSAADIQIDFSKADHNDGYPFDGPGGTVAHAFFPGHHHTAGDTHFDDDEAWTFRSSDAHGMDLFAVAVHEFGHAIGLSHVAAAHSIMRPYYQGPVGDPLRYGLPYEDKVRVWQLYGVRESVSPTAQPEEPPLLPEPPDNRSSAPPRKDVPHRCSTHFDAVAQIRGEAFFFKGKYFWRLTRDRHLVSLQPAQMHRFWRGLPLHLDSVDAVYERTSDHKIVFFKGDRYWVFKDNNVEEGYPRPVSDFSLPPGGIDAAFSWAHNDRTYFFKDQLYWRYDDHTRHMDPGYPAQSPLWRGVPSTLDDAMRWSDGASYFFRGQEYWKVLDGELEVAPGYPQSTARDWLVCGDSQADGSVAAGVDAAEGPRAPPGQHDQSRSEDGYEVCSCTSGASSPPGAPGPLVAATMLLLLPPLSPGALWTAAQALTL
individual catalytic domain of human MT5-MMP (human), sequence (Q9Y5R2 53-645): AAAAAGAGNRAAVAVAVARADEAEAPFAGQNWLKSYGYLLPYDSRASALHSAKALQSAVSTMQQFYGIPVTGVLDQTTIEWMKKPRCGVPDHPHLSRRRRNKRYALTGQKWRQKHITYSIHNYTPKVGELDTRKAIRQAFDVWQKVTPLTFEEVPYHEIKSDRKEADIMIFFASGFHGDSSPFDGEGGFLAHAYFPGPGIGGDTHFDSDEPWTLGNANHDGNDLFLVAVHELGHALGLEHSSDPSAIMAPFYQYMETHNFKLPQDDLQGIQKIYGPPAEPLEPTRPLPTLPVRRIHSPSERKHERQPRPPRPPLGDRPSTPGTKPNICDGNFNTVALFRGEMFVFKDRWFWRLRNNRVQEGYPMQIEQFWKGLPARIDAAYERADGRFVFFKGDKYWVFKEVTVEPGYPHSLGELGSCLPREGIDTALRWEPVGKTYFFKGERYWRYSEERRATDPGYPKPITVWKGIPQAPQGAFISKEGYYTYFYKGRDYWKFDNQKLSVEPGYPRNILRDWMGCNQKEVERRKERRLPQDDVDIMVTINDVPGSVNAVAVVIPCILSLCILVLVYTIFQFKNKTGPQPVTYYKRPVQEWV
individual catalytic domain of human MT2-MMP (human), sequence (P51511 42-669): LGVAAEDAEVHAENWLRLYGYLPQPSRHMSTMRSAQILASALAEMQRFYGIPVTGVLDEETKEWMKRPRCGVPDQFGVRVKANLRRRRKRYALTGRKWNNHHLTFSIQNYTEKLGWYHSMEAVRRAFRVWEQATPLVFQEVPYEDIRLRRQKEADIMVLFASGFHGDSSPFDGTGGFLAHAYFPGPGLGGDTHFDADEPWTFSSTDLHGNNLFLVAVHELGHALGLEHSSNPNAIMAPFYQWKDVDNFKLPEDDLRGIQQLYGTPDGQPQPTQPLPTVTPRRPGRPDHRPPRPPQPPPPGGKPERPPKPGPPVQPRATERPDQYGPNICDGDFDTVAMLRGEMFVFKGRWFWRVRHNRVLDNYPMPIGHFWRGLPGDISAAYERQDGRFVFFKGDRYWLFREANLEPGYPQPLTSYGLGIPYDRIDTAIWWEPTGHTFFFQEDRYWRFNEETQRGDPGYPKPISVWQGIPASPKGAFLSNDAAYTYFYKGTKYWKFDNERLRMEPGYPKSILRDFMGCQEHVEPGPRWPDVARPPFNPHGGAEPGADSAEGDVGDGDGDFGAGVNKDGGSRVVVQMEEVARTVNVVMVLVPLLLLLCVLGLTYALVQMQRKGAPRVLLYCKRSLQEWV
individual catalytic domain of human MT3-MMP (human), sequence (P51512 32-607): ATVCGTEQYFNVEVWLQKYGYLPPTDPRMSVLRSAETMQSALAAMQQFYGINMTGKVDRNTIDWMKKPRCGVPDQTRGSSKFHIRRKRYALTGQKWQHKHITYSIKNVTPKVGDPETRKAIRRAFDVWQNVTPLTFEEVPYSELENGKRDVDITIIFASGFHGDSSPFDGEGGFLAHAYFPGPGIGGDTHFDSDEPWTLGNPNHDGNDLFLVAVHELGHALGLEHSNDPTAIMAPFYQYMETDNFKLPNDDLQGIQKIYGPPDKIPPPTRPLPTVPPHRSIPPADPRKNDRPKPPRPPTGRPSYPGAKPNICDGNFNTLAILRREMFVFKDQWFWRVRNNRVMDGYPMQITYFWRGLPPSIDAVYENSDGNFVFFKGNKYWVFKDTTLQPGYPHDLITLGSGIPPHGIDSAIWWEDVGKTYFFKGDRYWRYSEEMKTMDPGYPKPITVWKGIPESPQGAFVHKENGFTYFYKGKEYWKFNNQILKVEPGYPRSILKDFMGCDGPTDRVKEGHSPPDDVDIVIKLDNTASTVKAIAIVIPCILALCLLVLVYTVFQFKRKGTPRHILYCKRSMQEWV

B1: 3A2 Fab (Fab, V domains shown)
VH: EVQLVESGGGLVQPGGSLRLSCAASGFNLSSSSMHWVRQAPGKGLEWVASIYPSYSYTYYADSVKGRFTISADTSKNTAYLQMNSLRAEDTAVYYCARVKLQKDKSHQWIRNLVATPYGRYVMDYWGQGTLVTVSS
VL: DIQMTQSPSSLSASVGDRVTITCRASQSVSSAVAWYQQKPGKAPKLLIYSASSLYSGVPSRFSGSRSGTDFTLTISSLQPEDFATYYCQQYGYPITFGQGTKVEIK
IC50 of inhibition of the CAT of MT2-MMP (5 nM), cleavage of Mca-PLGL-Dpa-AR-NH2 (1 uM); 3A2 Fab 0-5,000 nM [1]: 1800 nM
IC50 of inhibition of the CAT of MT3-MMP (5 nM), cleavage of Mca-PLGL-Dpa-AR-NH2 (1 uM); 3A2 Fab 0-5,000 nM [2]: 335 nM
IC50 of inhibition of the CAT of MT4-MMP (5 nM), cleavage of Mca-PLGL-Dpa-AR-NH2 (1 uM); 3A2 Fab 0-5,000 nM [3]: > 5000 nM
IC50 of inhibition of the CAT of MT5-MMP (5 nM), cleavage of Mca-PLGL-Dpa-AR-NH2 (1 uM); 3A2 Fab 0-5,000 nM [4]: 425 nM
IC50 of inhibition of the CAT of MT6-MMP (5 nM), cleavage of Mca-PLGL-Dpa-AR-NH2 (1 uM); 3A2 Fab 0-5,000 nM [5]: > 5000 nM
